# Measurements taken from IntAct's records for PubMed 16530190.
# B1: Actin-binding protein WASF1 (Rattus norvegicus (Rat)), Q5BJU7 (parent)
# chain: MPLVKRNIDPRHLCHTALPRGIKNELECVTNISLANIIRQLSSLSKYAEDIFGELFNEAHSFSFRVNSLQERVDRLSVSVTQLDPKEEELSLQDITMRKAFRSSTIQDQQLFDRKTLPIPLQETYDVCEQPPPLNVLTPYRDDGKEGLKFYTNPSYFFDLWKEKMLQDTEDKRKEKRKQKQKNLDRPHEPEKVPRAPHDRRREWQKLAQGPELAEDDADLLHKHIEVANGPASHFETRPQTYVDHMDGSYSLSALPFSQMSELLSRAEERVLVRPHEPPPPPPMHAAGDARPTPTCVSSAAGLIENRPQSPAAGRTPVFVSPTPPPPPPPLPSALSTSSLRASMTSTPPPPVPPPPPPPAPALQAPAVPPPPAPLQIAPGVLHPAPPPIAPPLVQPSPPVARAAPVCETVPVHPLPQGEVQGLPPPPPPPPLPPPGIRPSSPVTVAALAHPPSGLHPTPSPAPGPHAPLMPPSPPSQVLPASEPKRHPSTLPVISDARSVLLEAIRKGIQLRKVEEQREQEAKHERIENDVATILSRRIAVEYSDSEDDSEFDEVDWLE
# Variants of: B1
# Details: with gnai3_rat Gnai3, P08753
# Chain of gnai3_rat Gnai3, P08753 (P08753 whole entry): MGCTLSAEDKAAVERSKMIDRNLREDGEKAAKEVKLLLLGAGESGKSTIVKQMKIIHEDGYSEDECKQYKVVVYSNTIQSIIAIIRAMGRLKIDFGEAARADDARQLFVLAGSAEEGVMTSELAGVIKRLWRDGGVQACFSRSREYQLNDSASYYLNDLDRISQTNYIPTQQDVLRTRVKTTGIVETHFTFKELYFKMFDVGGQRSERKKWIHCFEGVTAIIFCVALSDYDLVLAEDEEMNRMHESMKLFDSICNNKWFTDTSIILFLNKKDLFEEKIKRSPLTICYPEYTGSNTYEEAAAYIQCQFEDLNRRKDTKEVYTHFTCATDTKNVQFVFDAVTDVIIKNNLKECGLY
row,effect of a mutation on the interaction,Variant
1,decreasing interaction,MPLVKRNIDPRHLCHTALPRGIKNELECVTNISLANIIRQLSSLSKYAEDIFGELFNEAHSFSFRVNSLQERVDRLSVSVTQLDPKEEELSLQDITMRKAFRSSTIQDQQLFDRKTLPIPLQETYDVCEQPPPLNVLTPYRDDGKEGLKFYTNPSYFFDLWKEKMLQDTEDKRKEKRKQKQKNLDRPHEPEKVPRAPHDRRREWQKLAQGPELAEDDADLLHKHIEVANGPASHFETRPQTYVDHMDGSYSLSALPFSQMSELLSRAEERVLVRPHEPPPPPPMHAAGDARPTPTCVSSAAGLIENRPQSPAAGRTPVFVSPTPPPPPPPLPSALSTSSLRASMTSTPPPPVPPPPPPPAPALQAPAVPPPPAPLQIAPGVLHPAPPPIAPPLVQPSPPVARAAPVCETVPVHPLPQGEVQGLPPPPPPPPLPPPGIRPSSPVTVAALAHPPSGLHPTPSPAPGPHAPLMPPSPPSQVLPASEPKRHPSTLPVISDARSVLLEAIRKGIQLRKVEEAREQEAKHERIENDVATILSRRIAVEYSDSEDDSEFDEVDWLE [Q517A]

# Variants of: B1
# Details: with actb_rat Actb
row,effect of a mutation on the interaction,Variant
1,decreasing interaction,MPLVKRNIDPRHLCHTALPRGIKNELECVTNISLANIIRQLSSLSKYAEDIFGELFNEAHSFSFRVNSLQERVDRLSVSVTQLDPKEEELSLQDITMRKAFRSSTIQDQQLFDRKTLPIPLQETYDVCEQPPPLNVLTPYRDDGKEGLKFYTNPSYFFDLWKEKMLQDTEDKRKEKRKQKQKNLDRPHEPEKVPRAPHDRRREWQKLAQGPELAEDDADLLHKHIEVANGPASHFETRPQTYVDHMDGSYSLSALPFSQMSELLSRAEERVLVRPHEPPPPPPMHAAGDARPTPTCVSSAAGLIENRPQSPAAGRTPVFVSPTPPPPPPPLPSALSTSSLRASMTSTPPPPVPPPPPPPAPALQAPAVPPPPAPLQIAPGVLHPAPPPIAPPLVQPSPPVARAAPVCETVPVHPLPQGEVQGLPPPPPPPPLPPPGIRPSSPVTVAALAHPPSGLHPTPSPAPGPHAPLMPPSPPSQVLPASEPKRHPSTLPVISDARSVLLEAIRKGIQLRKVEEAREQEAKHERIENDVATILSRRIAVEYSDSEDDSEFDEVDWLE [Q517A]

# Variants of: B1
# Details: with arpc2_human ARPC2, O15144
row,effect of a mutation on the interaction,Variant
1,decreasing interaction,MPLVKRNIDPRHLCHTALPRGIKNELECVTNISLANIIRQLSSLSKYAEDIFGELFNEAHSFSFRVNSLQERVDRLSVSVTQLDPKEEELSLQDITMRKAFRSSTIQDQQLFDRKTLPIPLQETYDVCEQPPPLNVLTPYRDDGKEGLKFYTNPSYFFDLWKEKMLQDTEDKRKEKRKQKQKNLDRPHEPEKVPRAPHDRRREWQKLAQGPELAEDDADLLHKHIEVANGPASHFETRPQTYVDHMDGSYSLSALPFSQMSELLSRAEERVLVRPHEPPPPPPMHAAGDARPTPTCVSSAAGLIENRPQSPAAGRTPVFVSPTPPPPPPPLPSALSTSSLRASMTSTPPPPVPPPPPPPAPALQAPAVPPPPAPLQIAPGVLHPAPPPIAPPLVQPSPPVARAAPVCETVPVHPLPQGEVQGLPPPPPPPPLPPPGIRPSSPVTVAALAHPPSGLHPTPSPAPGPHAPLMPPSPPSQVLPASEPKRHPSTLPVISDARSVLLEAIRKGIQLRKVEEAREQEAKHERIENDVATILSRRIAVEYSDSEDDSEFDEVDWLE [Q517A]
